# PMC3155531, “In Vitro and Ex Vivo Analysis of CHRNA3 and CHRNA5 Haplotype Expression”
# B1: dsA5pInDel (CHRNA5 promoter rs3841324 region) (dsDNA)
# DNA 1: GATTGGGCGGGGCCAGAGGGAAATAGGGG
# DNA 2: CCCCTATTTCCCTCTGGCCCCGCCCAATC
# Molecular target: SP-1 (rhSP-1) (Homo sapiens, UniProt P08047 2-785)
# Experiment: EMSA; 300 ng rhSP-1, 125 fmol probe; competed by 50x/100x cold probe; Promega Gel Shift Assay System (binding buffer, salt and pH not given); 10 min preincubation then 20 min with probe at 25 C; 4% non-denaturing PAGE
# Details: protein: recombinant; label: 32P 5' end; blunt
# Sequence of SP-1 (rhSP-1) (P08047 2-785): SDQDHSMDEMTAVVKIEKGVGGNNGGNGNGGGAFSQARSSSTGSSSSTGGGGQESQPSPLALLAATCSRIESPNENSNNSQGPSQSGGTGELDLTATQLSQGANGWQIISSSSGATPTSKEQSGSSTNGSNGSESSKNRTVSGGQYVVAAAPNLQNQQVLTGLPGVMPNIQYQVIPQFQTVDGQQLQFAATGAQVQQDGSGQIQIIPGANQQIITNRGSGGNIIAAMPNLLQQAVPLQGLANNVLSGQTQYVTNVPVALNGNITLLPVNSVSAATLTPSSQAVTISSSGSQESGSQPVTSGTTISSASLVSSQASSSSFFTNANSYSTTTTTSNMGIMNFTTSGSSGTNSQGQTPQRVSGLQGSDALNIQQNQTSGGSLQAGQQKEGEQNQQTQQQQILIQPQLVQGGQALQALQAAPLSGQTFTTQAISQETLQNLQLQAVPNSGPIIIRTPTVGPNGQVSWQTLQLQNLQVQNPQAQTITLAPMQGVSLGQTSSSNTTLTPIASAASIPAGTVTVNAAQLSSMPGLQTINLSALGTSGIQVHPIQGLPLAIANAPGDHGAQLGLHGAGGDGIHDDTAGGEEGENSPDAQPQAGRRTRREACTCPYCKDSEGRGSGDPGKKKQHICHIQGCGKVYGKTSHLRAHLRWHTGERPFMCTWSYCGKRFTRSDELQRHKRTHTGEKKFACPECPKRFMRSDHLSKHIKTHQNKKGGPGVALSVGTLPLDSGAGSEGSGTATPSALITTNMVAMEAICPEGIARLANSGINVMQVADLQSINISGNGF
binder,measurement,value
B1,binding result,binds
